This passage reports Kd results from patent US20230279119A1 (published 2023).

This assay has as its target T1, recombinant αvβ8 ectodomain (UniProt P06756 31-992; P26012 43-684, limits assumed).
T1 construct: extracellular domain; the ELISA and TMLC assays say only 'recombinant αvβ8'; also called immobilized αvβ8; integrin αvβ8
In words: scFv KD; method not stated (yeast-displayed scFv library was sorted with recombinant αvβ8 ectodomain).

T1 sequence (P06756 31-992 limits assumed, chain 1 of 2): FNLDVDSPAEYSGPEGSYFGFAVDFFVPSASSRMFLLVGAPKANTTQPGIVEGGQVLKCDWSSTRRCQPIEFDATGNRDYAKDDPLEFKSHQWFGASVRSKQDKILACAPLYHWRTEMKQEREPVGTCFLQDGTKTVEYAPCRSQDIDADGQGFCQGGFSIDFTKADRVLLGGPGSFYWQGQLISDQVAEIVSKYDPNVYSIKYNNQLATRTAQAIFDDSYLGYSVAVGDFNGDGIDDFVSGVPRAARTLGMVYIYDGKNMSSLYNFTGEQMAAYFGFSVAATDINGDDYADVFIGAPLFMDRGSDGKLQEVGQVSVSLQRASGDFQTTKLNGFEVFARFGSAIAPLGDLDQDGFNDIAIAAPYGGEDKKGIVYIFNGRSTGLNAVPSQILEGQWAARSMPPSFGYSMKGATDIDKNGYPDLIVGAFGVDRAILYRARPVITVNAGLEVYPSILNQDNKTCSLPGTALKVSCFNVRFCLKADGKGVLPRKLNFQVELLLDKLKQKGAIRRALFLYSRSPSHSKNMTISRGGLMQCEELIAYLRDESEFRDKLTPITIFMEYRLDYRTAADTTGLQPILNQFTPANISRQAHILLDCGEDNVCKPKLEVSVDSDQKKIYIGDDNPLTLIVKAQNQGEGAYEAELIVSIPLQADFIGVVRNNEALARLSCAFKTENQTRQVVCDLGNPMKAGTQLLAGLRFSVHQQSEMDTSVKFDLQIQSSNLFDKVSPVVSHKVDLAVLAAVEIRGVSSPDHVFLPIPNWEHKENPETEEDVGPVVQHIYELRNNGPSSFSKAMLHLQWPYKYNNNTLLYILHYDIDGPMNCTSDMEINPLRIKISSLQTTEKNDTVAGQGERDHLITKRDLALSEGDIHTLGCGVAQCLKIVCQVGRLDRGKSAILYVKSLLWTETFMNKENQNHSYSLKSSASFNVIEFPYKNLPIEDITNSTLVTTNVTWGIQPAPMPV
T1 sequence (P26012 43-684 limits assumed, chain 2 of 2): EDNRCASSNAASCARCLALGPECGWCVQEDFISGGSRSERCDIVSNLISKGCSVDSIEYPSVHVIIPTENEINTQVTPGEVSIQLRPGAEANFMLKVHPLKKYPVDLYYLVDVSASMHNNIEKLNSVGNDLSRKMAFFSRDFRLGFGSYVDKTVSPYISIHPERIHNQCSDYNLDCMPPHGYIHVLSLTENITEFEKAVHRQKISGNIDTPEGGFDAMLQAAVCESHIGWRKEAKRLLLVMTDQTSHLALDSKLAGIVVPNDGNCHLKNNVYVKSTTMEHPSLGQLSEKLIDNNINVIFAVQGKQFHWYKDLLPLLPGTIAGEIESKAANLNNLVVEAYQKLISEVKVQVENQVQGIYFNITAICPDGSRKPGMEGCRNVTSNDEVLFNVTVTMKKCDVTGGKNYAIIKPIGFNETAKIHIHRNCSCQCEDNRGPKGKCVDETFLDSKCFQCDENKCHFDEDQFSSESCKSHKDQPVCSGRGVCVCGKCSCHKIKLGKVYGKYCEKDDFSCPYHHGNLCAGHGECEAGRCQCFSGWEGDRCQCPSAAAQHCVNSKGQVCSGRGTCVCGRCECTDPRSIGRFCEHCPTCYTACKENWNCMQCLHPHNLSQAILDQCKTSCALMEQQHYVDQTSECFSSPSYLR

B1: HuC6D4F12 scFv (scFv, V domains shown)
VH: QIQLVQSGAEVKKPGASVKISCKASGYTFTKYSMHWVRQAPGQGLEWVARINTETGEPTFADDFRGRFTVTLDTSTSTAYLEIRSLRSDDTAVYFCAIFYYGRDTWGQGTTLTVSS
VL: EIVMTQSPATLSVSPGERVTMSCKSSQSLLHSRSRKNYLAWYQQKPGQAPRLLIYWASTRESGVPARFSGSGSGTEFTLTISSVQSEDFAVYYCKQSYNLLSFGQGTVLEIK
notes: not shown: The scFv linker, the domain order, and the yeast-display partner and tags (vector pYD4)
In the case of B1, the dissociation constant Kd (commonly a measure of binding affinity in units of concentration) came to 0.39 nM.

B2: C6D4 scFv (scFv, V domains shown)
VH: QIQLVQSGPELKKPGETVKISCKASGYTFTDYSMHWVKQAPGKGLKWVARINTETGEPTFADDFRGRFAVSLETSASTAYLQINNLKNEDTATYFCAIFYYGRDSWGQGTTLTVSS
VL: DIVMTQSPSSLAVSAGEKVTMSCKSSQSLLNSRTRKNYLAWYQQKPGQSPRLLIYWASTRESGVPDRFTGSGSGTDFTLTISSVQAEDLAVYYCKQSYNLLSFGAGTKLELK
notes: as for B1
On to B2, for which the Kd amounted to 7.25 nM.
